The values that follow come from US20140147456A1 (AFFIRIS, published 2014).

The target of this test is T1, recombinantly expressed human CETP N-terminally fused to GST (human, UniProt P11597 18-493, limits assumed).
T1 construct: coated antigen of the protein ELISA; also called GST-CETP; CETP protein; not shown: GST (Glutathione-S-transferase) tag at the N-terminus
T1 sequence (looked up): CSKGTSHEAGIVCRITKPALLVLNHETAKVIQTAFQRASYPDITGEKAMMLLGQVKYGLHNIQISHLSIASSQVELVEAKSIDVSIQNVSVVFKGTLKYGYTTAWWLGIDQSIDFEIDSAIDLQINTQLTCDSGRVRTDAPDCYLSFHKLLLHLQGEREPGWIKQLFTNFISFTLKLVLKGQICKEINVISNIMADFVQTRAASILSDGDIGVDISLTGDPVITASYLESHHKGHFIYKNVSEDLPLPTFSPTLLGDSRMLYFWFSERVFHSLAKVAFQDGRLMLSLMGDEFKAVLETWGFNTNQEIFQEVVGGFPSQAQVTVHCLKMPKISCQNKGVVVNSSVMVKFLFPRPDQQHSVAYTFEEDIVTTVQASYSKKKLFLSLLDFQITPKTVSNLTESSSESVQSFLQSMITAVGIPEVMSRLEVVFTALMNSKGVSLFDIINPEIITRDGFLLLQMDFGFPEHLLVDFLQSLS
The experiment in a line: human CETP protein ELISA, coated protein, antibody titrated.

B1: monoclonal antibody 5/C7-6-C8 (antibody, V domains shown)
VH: EVQLVESGGGLVEPGGSLKLSCVASGFTFSTYAMSWFRLTPERRLEWVAAISNGGSQNSYPDSVKGRFTVSRDNAKNTLYLQMSSLRSEDTAMYYCSRNGNYFDYWGQGTTLTVSS
VL: QIVLTQSPAIMSASPGEKVTMTCSASSSISYMHWYQQKPGTSPKRWIFDTSKLASGVPARFSGSGSGTSYSLTISSMEAEDAATYYCHQRSSYPTFGSGTKLEIK
On to B1, for which the binding result was “binds”.

B2: monoclonal antibody BTS4-1 (antibody, V domains shown)
VH: QIQLVQSGPELKKPGETVKISCKASGYTFTDCSMHWVKQAPGQGLKWMGWINTKTGEPTYADDFKGRFAFSLETSASTAYLQINILKNEDSATYFCAAHSGKDYAIDYWGQGTSVTVSS
VL: DVLMTQTPLSLPVSLGDQASISCRSSQSIVHRNGNTYLEWYLQKPGQSPKLLIYKVSNRFSGVPDRFSGSGSGTDFTLRISRVEAQDLGVYFCFQGSRVPPTFGGGTKLEIK
Take B2: the binding result is recorded as “binds”.

B3: monoclonal antibody 12/B3-5-B11 (antibody, V domains shown)
VH: DVQLQESGPGLVKPSQSLSLTCTVTGYSITSDYAWNWIRQFPGNKLEWMGYISYSGTTTYNPSLKSRISITRHTSKNQFFLQLNSVTTEDSATYYCTRLGYYFDYWGQGTTLTVSS
VL: DIVMTQSPASLAMSVGQKVTMNCKSSQSLLSSKNQKNFLAWYQQKPGQSPKVLVYFASTRASGVPDRFIGSGSGTDFTLTISSVQAEDLADYFCQQQYNTPLTFGAGTKLELK
In the case of B3, the binding result is “binds”.

B4: monoclonal antibody CJ7-6-B7 (antibody, V domains shown)
VH: NVQLQESGPGLVKPSQSLSLTCTVTGHSITSDYAWNWIRQFPGNKLEWMGYITNSGSTTYNPSLKSRISITRDTSKNQFFLQLNSVTTEDTATYYCTRGGPYWGQGTLVTVSA
VL: DIVMTQSQKFMSTSVGDRVSITCKASQNVGTAVVWYQQKPGQSPKLLIYSASNRYTGVPDRFTGSGSGTDFTLTITNMQSEDLADYFCQQYSSYPLTFGAGTKLELK
B4: the binding result is “binds”.
